Data from US20210101932A1 (Bicycle, published 2021).
*1 amine or outer side, *2 acyl side, *3 side chain or, on linkers, in order; H or OH if unused. Bridges are numbered along the chain shown (N, C = ends). Where no end group is shown, it is not given here. [ ]: non-standard residue; d: D form. TATA = O=C(CC[*:1])N1CN(C(=O)CC[*:2])CN(C(=O)CC[*:3])C1; hArg = N=C(N)NCCCC[C@H](N)C(=O)O; Aad = N[C@@H](CCCC(=O)O)C(=O)O; Chg = N[C@H](C(=O)O)C1CCCCC1; Nle = CCCC[C@H](N)C(=O)O; Nva = CCC[C@H](N)C(=O)O; Aib = CC(C)(N)C(=O)O

B1: BCY11853 (peptide)
peptide: Ac-DKCS[Aad]GWLTMCQKLHLCPSH-OH
modifications: linker 3-11-17 via TATA
SMILES: CSCC[C@@H]1NC(=O)[C@H]([C@@H](C)O)NC(=O)[C@H](CC(C)C)NC(=O)[C@H](Cc2c[nH]c3ccccc23)NC(=O)CNC(=O)[C@H](CCCC(=O)O)NC(=O)[C@H](CO)NC(=O)[C@@H](NC(=O)[C@H](CCCCN)NC(=O)[C@H](CC(=O)O)NC(C)=O)CSCCC(=O)N2CN3CN(C2)C(=O)CCSC[C@@H](C(=O)N2CCC[C@H]2C(=O)N[C@@H](CO)C(=O)N[C@@H](Cc2c[nH]cn2)C(=O)O)NC(=O)[C@H](CC(C)C)NC(=O)[C@H](Cc2c[nH]cn2)NC(=O)[C@H](CC(C)C)NC(=O)[C@H](CCCCN)NC(=O)[C@H](CCC(N)=O)NC(=O)[C@H](CSCCC3=O)NC1=O
B2: BCY10960 (peptide)
peptide: Ac-SDKCSEGWLTMCQKLHLC
modifications: linker 4-12-18 via TATA; not fully specified (C-terminus); printed as [Ac]SDKCSEGWLTMCQKLHLC
B3: BCY11824 (peptide)
peptide: Ac-KCS[Aad]GWLTMCLKLHLC
modifications: linker 2-10-16 via TATA; not fully specified (C-terminus); printed as Ac-KCS[Aad]GWLTMCLKLHLC
B4: BCY11827 (peptide)
peptide: Ac-[hArg]CS[Aad]GWLTMCLKLHLC
modifications: linker 2-10-16 via TATA; not fully specified (C-terminus); printed as Ac-[HArg]CS[Aad]GWLTMCLKLHLC

biological target: T1, Recombinant human PD-L1 (Sino Biologicals or R&D systems), biotinylated (human, UniProt Q9NZQ7 19-238, limits assumed, biotinylated with EZ-Link Sulfo-NHS-LC-LC-Biotin); test: SPR (Biacore), biotinylated PD-L1 on streptavidin chip
T1 construct: captured on a streptavidin CM5 chip for SPR; also called human PD-L1 protein; Biotinylated PD-L1
T1 sequence (Q9NZQ7 19-238 limits assumed): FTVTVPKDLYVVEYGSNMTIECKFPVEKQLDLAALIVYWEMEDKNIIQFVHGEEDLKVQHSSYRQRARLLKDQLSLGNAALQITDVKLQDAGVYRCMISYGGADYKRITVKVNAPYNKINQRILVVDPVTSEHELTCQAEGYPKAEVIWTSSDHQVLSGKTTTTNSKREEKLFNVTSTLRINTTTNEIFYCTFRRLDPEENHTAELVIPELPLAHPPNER
Procedure: Biacore experiments were performed to determine kₐ) (M⁻¹s⁻¹), kd (s⁻¹), KD (nM) values of monomeric peptides binding to human PD-L1 protein. […] The protein was desalted to remove uncoupled biotin using spin columns into PBS. For analysis of binding, a Biacore 3000 instrument was used utilizing a CM5 sensor chip (GE Healthcare). Streptavidin was immobilized on the chip using standard amine-coupling chemistry at 25° C. with HBS-N (10 mM HEPES, 0.15 M NaCl, pH 7.4) as the running buffer. The carboxymethyl dextran surface was activated with a 12 min injection of a 1:1 ratio of 0.4 M 1-ethyl-3-(3-dimethylaminopropyl) carbodiimide hydrochloride (EDC)/0.1 M N-hydroxy succinimide (NHS) at a flow rate of 10 μl/min. For capture of streptavidin, protein was diluted to 0.1 mg/ml in 10 mM sodium acetate (pH 4.5) and captured by injecting 70 μl onto the activated chip surface. Residual activated groups were blocked with a 7 min injection of 1 M ethanolamine (pH 8.5). Biotinylated PD-L1 stock was diluted 1:100 in HBS-N and captured on one flow cell at 5 μl/min to a level of 1000-1300 RU. Buffer was changed to PBS/0.05% Tween 20 and a dilution series of the peptides was prepared in this buffer with a final DMSO concentration of 0.5%. The top concentrations were 200 nM or 500 nM with 6 2-fold dilutions. The SPR analysis was run at 25° C. at a flow rate of Flow rate 50 μl/min with 60 seconds association and 400 seconds disassociation. Data were corrected for DMSO excluded volume effects. All data were double-referenced for blank injections and reference surface using standard processing procedures and data processing and kinetic fitting were performed using Scrubber software, version 2.0c (Biologic Software). Data were fitted using mass transport model allowing for mass transport effects where appropriate.

Kd	Binder
17.6 nM	B1
9.94 nM	B2
54.5 nM	SDKCSAGWLTMCQ[Nle]LHLCA (linker 4-12-18 via TATA) [BCY10068]
27.9 nM	SDKCSXGWLTMCQKLHLCA ([Abu] as in SDKCS[Abu]GWLTMCQKLHLCA; Ci, Cii, Ciii cyclised on TATA) [BCY10055]
28.8 nM	Ac-SEKCS[Aad]GWLTMCLKLHLC (linker 4-12-18 via TATA) [BCY11825]
60 nM	B3
43.2 nM	SDKCSAGWLTMCQK[Nva]HLCA (linker 4-12-18 via TATA) [BCY10084]
59.7 nM	SDKCSAGWLTXCQKLHLCA ([Nle] as in SDKCSAGWLT[Nle]CQKLHLCA; Ci, Cii, Ciii cyclised on TATA) [BCY10058]
23 nM	SDKCS[Nle]GWLTMCQKLHLCA (linker 4-12-18 via TATA) [BCY10062]
13.2 nM	Ac-SEKCS[Aad]GWLTMCLKLHLCPSH (linker 4-12-18 via TATA) [BCY11831]
58.2 nM	SDKCSAGWLTMCQKXHLCA ([Nle] as in SDKCSAGWLTMCQK[Nle]HLCA; Ci, Cii, Ciii cyclised on TATA) [BCY10071]
18.2 nM	Ac-EKCS[Aad]GWLTMCLKLHLC (linker 3-11-17 via TATA) [BCY11826]
15.8 nM	SDKCSAGWLTMCQKL[Aib]LCA (linker 4-12-18 via TATA) [BCY10073]
14.4 nM	SDKCSAGWLTMC[Chg]KLHLCA (linker 4-12-18 via TATA) [BCY10066]
30 nM	B4
31.2 nM	SDKCSXGWLTMCQKLHLCA ([Aib] as in SDKCS[Aib]GWLTMCQKLHLCA; Ci, Cii, Ciii cyclised on TATA) [BCY10054]
16.6 nM	Ac-SDKCS[Aad]GWLTMCLKLHLCA (linker 4-12-18 via TATA) [BCY11828]
22.3 nM	SDXCSAGWLTMCQKLHLCA ([HArg] (homoarginine) = X at chain position 3; Ci, Cii, Ciii cyclised on TATA) [BCY10052]
75 nM	SDKCSAGWLTMCQKLH[Nva]CA (linker 4-12-18 via TATA) [BCY10083]
36.1 nM	SDKCSAGWLTMCQKLHXCA ([Nle] as in SDKCSAGWLTMCQKLH[Nle]CA; Ci, Cii, Ciii cyclised on TATA) [BCY10074]
